Source: patent US5861377

How the values were obtained:
[1] = biological target: chymotrypsin (inhibition assay used during purification)
[2] = biological target: trypsin (inhibition assay used during purification)

specific activity (SA) of chymotrypsin inhibition, Mono S pool [1]: 0.15 IU/mg
specific activity (SA) of trypsin inhibition, Mono S pool [2]: 2.7 IU/mg
Substance: hirustasin (Hirudo antistasin)
